Measured values as given in patent US9988429B2, “Glucagon analogues” (Zealand Pharma A/S, priority 2013, dated 2018).
Starred links: 1 amine or outer side, 2 acyl side, 3 side chain; linkers in the order of their positions; H or OH if unused. Non-standard residues stand in square brackets, D forms with d. Groups on a side chain read outwards from the residue. *: point of attachment. γGlu = O=C(O)[C@H](CCC(=O)[*:2])N[*:1]; Palmitoyl = CCCCCCCCCCCCCCCC(=O)*; Ac4c = NC1(C(=O)O)CCC1; Ac3c = NC1(C(=O)O)CC1

T1: endogenous GLP-1 receptor of a murine insulinoma cell line (murine, UniProt O35659 22-463)
T1 sequence (looked up): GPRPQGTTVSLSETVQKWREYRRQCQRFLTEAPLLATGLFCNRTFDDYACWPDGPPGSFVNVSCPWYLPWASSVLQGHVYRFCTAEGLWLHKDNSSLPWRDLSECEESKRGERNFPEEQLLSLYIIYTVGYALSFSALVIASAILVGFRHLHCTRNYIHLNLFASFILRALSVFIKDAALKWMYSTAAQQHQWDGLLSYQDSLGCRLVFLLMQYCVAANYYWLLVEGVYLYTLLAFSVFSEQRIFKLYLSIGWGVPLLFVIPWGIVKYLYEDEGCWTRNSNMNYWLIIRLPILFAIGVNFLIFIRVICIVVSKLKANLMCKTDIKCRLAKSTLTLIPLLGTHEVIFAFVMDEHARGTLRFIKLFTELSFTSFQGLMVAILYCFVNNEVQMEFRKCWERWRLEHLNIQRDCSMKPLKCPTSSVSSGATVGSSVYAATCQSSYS


Legend:
Assay in all cases: cell-based or functional assay
[1] = biological target: T1, endogenous GLP-1 receptor of a murine …
[2] = biological target: endogenous glucagon receptor of primary rat hepatocytes (rat, UniProt P30082 27-485)
Sequence of endogenous glucagon receptor of primary rat hepatocytes (P30082 27-485): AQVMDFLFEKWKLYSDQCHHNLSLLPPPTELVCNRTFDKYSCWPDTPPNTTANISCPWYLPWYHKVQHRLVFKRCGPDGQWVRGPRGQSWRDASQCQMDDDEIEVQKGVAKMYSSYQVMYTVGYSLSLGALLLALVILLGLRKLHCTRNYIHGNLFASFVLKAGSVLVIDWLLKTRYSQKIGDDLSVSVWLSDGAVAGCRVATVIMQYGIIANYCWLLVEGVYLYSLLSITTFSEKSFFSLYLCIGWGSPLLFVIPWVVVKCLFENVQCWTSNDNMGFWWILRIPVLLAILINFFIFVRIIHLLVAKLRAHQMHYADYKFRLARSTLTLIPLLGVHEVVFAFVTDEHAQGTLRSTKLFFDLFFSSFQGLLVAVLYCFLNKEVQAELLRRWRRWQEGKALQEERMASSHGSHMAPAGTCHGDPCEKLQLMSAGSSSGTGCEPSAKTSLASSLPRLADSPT

[3] = biological target: human glucagon-like peptide 1 receptor (GLP-1R) (human, UniProt P43220 24-463)
[4] = biological target: human glucagon receptor (Glucagon-R) (human, UniProt P47871 26-477)
Sequence of human glucagon receptor (Glucagon-R) (P47871 26-477): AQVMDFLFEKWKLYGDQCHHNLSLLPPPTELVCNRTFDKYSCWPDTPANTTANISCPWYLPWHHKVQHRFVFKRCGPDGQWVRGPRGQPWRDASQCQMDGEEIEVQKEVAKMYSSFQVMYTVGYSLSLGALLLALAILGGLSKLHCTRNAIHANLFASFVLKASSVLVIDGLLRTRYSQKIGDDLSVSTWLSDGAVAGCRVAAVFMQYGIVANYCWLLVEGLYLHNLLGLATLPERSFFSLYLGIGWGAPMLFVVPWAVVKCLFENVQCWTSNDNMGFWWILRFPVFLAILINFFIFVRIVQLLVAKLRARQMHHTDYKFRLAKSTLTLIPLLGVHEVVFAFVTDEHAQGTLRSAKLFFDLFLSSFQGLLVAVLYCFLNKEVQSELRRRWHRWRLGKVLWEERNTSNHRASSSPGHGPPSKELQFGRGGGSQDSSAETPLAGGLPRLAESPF

Binder	EC50 [nM] (cAMP in murine insulinoma cell line) [1]	EC50 [nM] (inhibition of glycogen synthesis rate in primary rat hepatocytes) [2]	EC50 hGLP-1R CHO-K1 [nM] (cAMP, AlphaScreen) [3]	EC50 hGCGR CHO-K1 [nM] (cAMP, AlphaScreen) [4]
HTQGTFTSDYSKYLDEKAAKDFIEWLESA (position 2 is Abu ((S)-2-aminobutyric acid); Lys17 side chain conjugated to hexadecanoyl-isoGlu; C-terminal amide (NH2)) [Compound 10: H-H-Abu-QGTFTSDYSKYLDE-K(Hexadecanoyl-isoGlu)-AAKDFIEWLESA-NH2]	0.09	2.75	0.27	0.1
HXQGTFTSDYSKYLDEKAAKDFIEWLESA (position 2 is DAla (D-alanine); Lys17 side chain conjugated to hexadecanoyl-isoGlu; C-terminal amide (NH2)) [Compound 12: H-H-DAla-QGTFTSDYSKYLDE-K(Hexadecanoyl-isoGlu)-AAKDFIEWLESA-NH2]			0.14	1.27
H-HAHGTFTSDYSKYLDSK([γGlu-Palmitoyl])AAHDFVEWLLSA-NH2 (SMILES CCCCCCCCCCCCCCCC(=O)N[C@@H](CCC(=O)NCCCC[C@H](NC(=O)[C@H](CO)NC(=O)[C@H](CC(=O)O)NC(=O)[C@H](CC(C)C)NC(=O)[C@H](Cc1ccc(O)cc1)NC(=O)[C@H](CCCCN)NC(=O)[C@H](CO)NC(=O)[C@H](Cc1ccc(O)cc1)NC(=O)[C@H](CC(=O)O)NC(=O)[C@H](CO)NC(=O)[C@@H](NC(=O)[C@H](Cc1ccccc1)NC(=O)[C@@H](NC(=O)CNC(=O)[C@H](Cc1c[nH]cn1)NC(=O)[C@H](C)NC(=O)[C@@H](N)Cc1c[nH]cn1)[C@@H](C)O)[C@@H](C)O)C(=O)N[C@@H](C)C(=O)N[C@@H](C)C(=O)N[C@@H](Cc1c[nH]cn1)C(=O)N[C@@H](CC(=O)O)C(=O)N[C@@H](Cc1ccccc1)C(=O)N[C@H](C(=O)N[C@@H](CCC(=O)O)C(=O)N[C@@H](Cc1c[nH]c2ccccc12)C(=O)N[C@@H](CC(C)C)C(=O)N[C@@H](CC(C)C)C(=O)N[C@@H](CO)C(=O)N[C@@H](C)C(N)=O)C(C)C)C(=O)O) [Compound 6: H-HAHGTFTSDYSKYLDS-K(Hexadecanoyl-isoGlu)-AAHDFVEWLLSA-NH2]	0.4	0.87	0.62	0.83
H-HAQGTFTSDYSKYLDSK([γGlu-Palmitoyl])AAHDFVEWLLSA-NH2 [Compound 1: H-HAQGTFTSDYSKYLDS-K(Hexadecanoyl-isoGlu)-AAHDFVEWLLSA-NH2]	0.12		0.52	
H-H[dA]HGTFTSDYSKYLDSK([γGlu-Palmitoyl])AAHDFVEWLLSA-NH2 (SMILES CCCCCCCCCCCCCCCC(=O)N[C@@H](CCC(=O)NCCCC[C@H](NC(=O)[C@H](CO)NC(=O)[C@H](CC(=O)O)NC(=O)[C@H](CC(C)C)NC(=O)[C@H](Cc1ccc(O)cc1)NC(=O)[C@H](CCCCN)NC(=O)[C@H](CO)NC(=O)[C@H](Cc1ccc(O)cc1)NC(=O)[C@H](CC(=O)O)NC(=O)[C@H](CO)NC(=O)[C@@H](NC(=O)[C@H](Cc1ccccc1)NC(=O)[C@@H](NC(=O)CNC(=O)[C@H](Cc1c[nH]cn1)NC(=O)[C@@H](C)NC(=O)[C@@H](N)Cc1c[nH]cn1)[C@@H](C)O)[C@@H](C)O)C(=O)N[C@@H](C)C(=O)N[C@@H](C)C(=O)N[C@@H](Cc1c[nH]cn1)C(=O)N[C@@H](CC(=O)O)C(=O)N[C@@H](Cc1ccccc1)C(=O)N[C@H](C(=O)N[C@@H](CCC(=O)O)C(=O)N[C@@H](Cc1c[nH]c2ccccc12)C(=O)N[C@@H](CC(C)C)C(=O)N[C@@H](CC(C)C)C(=O)N[C@@H](CO)C(=O)N[C@@H](C)C(N)=O)C(C)C)C(=O)O) [Compound 7: H-H-DAla-HGTFTSDYSKYLDS-K(Hexadecanoyl-isoGlu)-AAHDFVEWLLSA-NH2]	0.3	0.28	0.35	0.6
H-H[Ac3c]QGTFTSDYSKYLDSK([γGlu-Palmitoyl])AAHDFVEWLLSA-NH2 (SMILES CCCCCCCCCCCCCCCC(=O)N[C@@H](CCC(=O)NCCCC[C@H](NC(=O)[C@H](CO)NC(=O)[C@H](CC(=O)O)NC(=O)[C@H](CC(C)C)NC(=O)[C@H](Cc1ccc(O)cc1)NC(=O)[C@H](CCCCN)NC(=O)[C@H](CO)NC(=O)[C@H](Cc1ccc(O)cc1)NC(=O)[C@H](CC(=O)O)NC(=O)[C@H](CO)NC(=O)[C@@H](NC(=O)[C@H](Cc1ccccc1)NC(=O)[C@@H](NC(=O)CNC(=O)[C@H](CCC(N)=O)NC(=O)C1(NC(=O)[C@@H](N)Cc2c[nH]cn2)CC1)[C@@H](C)O)[C@@H](C)O)C(=O)N[C@@H](C)C(=O)N[C@@H](C)C(=O)N[C@@H](Cc1c[nH]cn1)C(=O)N[C@@H](CC(=O)O)C(=O)N[C@@H](Cc1ccccc1)C(=O)N[C@H](C(=O)N[C@@H](CCC(=O)O)C(=O)N[C@@H](Cc1c[nH]c2ccccc12)C(=O)N[C@@H](CC(C)C)C(=O)N[C@@H](CC(C)C)C(=O)N[C@@H](CO)C(=O)N[C@@H](C)C(N)=O)C(C)C)C(=O)O) [Compound 3: H-H-Ac3c-QGTFTSDYSKYLDS-K(Hexadecanoyl-isoGlu)-AAHDFVEWLLSA-NH2]	0.27	3.27		0.62
H-HAQGTFTSDYSKYLDEK([γGlu-Palmitoyl])AAKDFIEWLESA-NH2 [Compound 11: H-HAQGTFTSDYSKYLDE-K(Hexadecanoyl-isoGlu)-AAKDFIEWLESA-NH2]			0.14	0.69

Further lines, results first:

EC50 [nM] (cAMP in murine insulinoma cell line) [1]	EC50 [nM] (inhibition of glycogen synthesis rate in primary rat hepatocytes) [2]	EC50 hGLP-1R CHO-K1 [nM] (cAMP, AlphaScreen) [3]	EC50 hGCGR CHO-K1 [nM] (cAMP, AlphaScreen) [4]	Binder
0.21	0.07	0.33	0.2	H-H[Ac4c]HGTFTSDYSKYLDSK([γGlu-Palmitoyl])AAHDFVEWLLSA-NH2 (SMILES CCCCCCCCCCCCCCCC(=O)N[C@@H](CCC(=O)NCCCC[C@H](NC(=O)[C@H](CO)NC(=O)[C@H](CC(=O)O)NC(=O)[C@H](CC(C)C)NC(=O)[C@H](Cc1ccc(O)cc1)NC(=O)[C@H](CCCCN)NC(=O)[C@H](CO)NC(=O)[C@H](Cc1ccc(O)cc1)NC(=O)[C@H](CC(=O)O)NC(=O)[C@H](CO)NC(=O)[C@@H](NC(=O)[C@H](Cc1ccccc1)NC(=O)[C@@H](NC(=O)CNC(=O)[C@H](Cc1c[nH]cn1)NC(=O)C1(NC(=O)[C@@H](N)Cc2c[nH]cn2)CCC1)[C@@H](C)O)[C@@H](C)O)C(=O)N[C@@H](C)C(=O)N[C@@H](C)C(=O)N[C@@H](Cc1c[nH]cn1)C(=O)N[C@@H](CC(=O)O)C(=O)N[C@@H](Cc1ccccc1)C(=O)N[C@H](C(=O)N[C@@H](CCC(=O)O)C(=O)N[C@@H](Cc1c[nH]c2ccccc12)C(=O)N[C@@H](CC(C)C)C(=O)N[C@@H](CC(C)C)C(=O)N[C@@H](CO)C(=O)N[C@@H](C)C(N)=O)C(C)C)C(=O)O) [Compound 9: H-H-Ac4c-HGTFTSDYSKYLDS-K(Hexadecanoyl-isoGlu)-AAHDFVEWLLSA-NH2]
0.35	0.75	0.27	0.12	H-HSHGTFTSDYSKYLDSK([γGlu-Palmitoyl])AAHDFVEWLLSA-NH2 (SMILES CCCCCCCCCCCCCCCC(=O)N[C@@H](CCC(=O)NCCCC[C@H](NC(=O)[C@H](CO)NC(=O)[C@H](CC(=O)O)NC(=O)[C@H](CC(C)C)NC(=O)[C@H](Cc1ccc(O)cc1)NC(=O)[C@H](CCCCN)NC(=O)[C@H](CO)NC(=O)[C@H](Cc1ccc(O)cc1)NC(=O)[C@H](CC(=O)O)NC(=O)[C@H](CO)NC(=O)[C@@H](NC(=O)[C@H](Cc1ccccc1)NC(=O)[C@@H](NC(=O)CNC(=O)[C@H](Cc1c[nH]cn1)NC(=O)[C@H](CO)NC(=O)[C@@H](N)Cc1c[nH]cn1)[C@@H](C)O)[C@@H](C)O)C(=O)N[C@@H](C)C(=O)N[C@@H](C)C(=O)N[C@@H](Cc1c[nH]cn1)C(=O)N[C@@H](CC(=O)O)C(=O)N[C@@H](Cc1ccccc1)C(=O)N[C@H](C(=O)N[C@@H](CCC(=O)O)C(=O)N[C@@H](Cc1c[nH]c2ccccc12)C(=O)N[C@@H](CC(C)C)C(=O)N[C@@H](CC(C)C)C(=O)N[C@@H](CO)C(=O)N[C@@H](C)C(N)=O)C(C)C)C(=O)O) [Compound 5: H-HSHGTFTSDYSKYLDS-K(Hexadecanoyl-isoGlu)-AAHDFVEWLLSA-NH2]
	0.05		0.1	H-H[Ac4c]HGTFTSDYSKYLDEK([γGlu-Palmitoyl])AAKDFIEWLESA-NH2 [Compound 15: H-H-Ac4c-HGTFTSDYSKYLDE-K(Hexadecanoyl-isoGlu)-AAKDFIEWLESA-NH2]
0.24	1.18	0.24	1.82	H-H[Ac3c]HGTFTSDYSKYLDSK([γGlu-Palmitoyl])AAHDFVEWLLSA-NH2 (SMILES CCCCCCCCCCCCCCCC(=O)N[C@@H](CCC(=O)NCCCC[C@H](NC(=O)[C@H](CO)NC(=O)[C@H](CC(=O)O)NC(=O)[C@H](CC(C)C)NC(=O)[C@H](Cc1ccc(O)cc1)NC(=O)[C@H](CCCCN)NC(=O)[C@H](CO)NC(=O)[C@H](Cc1ccc(O)cc1)NC(=O)[C@H](CC(=O)O)NC(=O)[C@H](CO)NC(=O)[C@@H](NC(=O)[C@H](Cc1ccccc1)NC(=O)[C@@H](NC(=O)CNC(=O)[C@H](Cc1c[nH]cn1)NC(=O)C1(NC(=O)[C@@H](N)Cc2c[nH]cn2)CC1)[C@@H](C)O)[C@@H](C)O)C(=O)N[C@@H](C)C(=O)N[C@@H](C)C(=O)N[C@@H](Cc1c[nH]cn1)C(=O)N[C@@H](CC(=O)O)C(=O)N[C@@H](Cc1ccccc1)C(=O)N[C@H](C(=O)N[C@@H](CCC(=O)O)C(=O)N[C@@H](Cc1c[nH]c2ccccc12)C(=O)N[C@@H](CC(C)C)C(=O)N[C@@H](CC(C)C)C(=O)N[C@@H](CO)C(=O)N[C@@H](C)C(N)=O)C(C)C)C(=O)O) [Compound 8: H-H-Ac3c-HGTFTSDYSKYLDS-K(Hexadecanoyl-isoGlu)-AAHDFVEWLLSA-NH2]
